We go through 13 molecules from patent publication US5821046A, “RNA oligonucleotides that bind HIV tat protein” (RiboTargets Holdings PLC, priority 1990, dated 1998).

Data set [1] has as its system HIV-1 tat protein. Kind of data set: direct filter binding assay of tat to TAR RNA (saturation binding, Scatchard analysis). To be noted: direct filter binding; HIV-1 TAR from saturation binding/Scatchard plot, mutants estimated from half-maximal binding; read-out: Kd (dissociation constant of tat binding). The protocol: The results shown graphically in FIG. 4 are from experiments in which binding reactions (500 ul) contained 40 nMolar^32 P uniformly radiolabelled TAR RNA at a specific activity of 100,000 Ci/mole; 0.5 ug calf thymus DNA; 0.2 ug yeast TRNA; 40 units RNAsin (Promega); 50mm Tris-HCl pH 7.9 and 20 mM KCl. Reaction mixtures were set up on ice and increasing amounts of HIV-1 tat protein were added and the reaction mixtures were filtered through prewashed nitrocellulose filters (Millipore 0.45 uM pore size). The filters were dried and counted by liquid scintillation counting. The fraction of radiolabeled RNA bound was plotted against HIV-1 tat concentration.
Binding was measured by a filter-binding assay as described below under "Method", using monomeric tat protein prepared by CNBr cleavage of a human growth hormone-tat fusion protein expressed in E. coli. Reactions for saturation binding contained labeled TAR RNA [SEQ ID NO: 1] or antisense TAR RNA [SEQ ID NO: 6] at 10 nm and between 0 to 300 nM purified tat protein. Antisense TAR RNA was used as a control, since antisense TAR is unable to form stable complexes with tat in gel-retardation assays (Dingwall et al., 1989).
The stoichiometry of the tat/TAR interaction was determined by varying the TAR RNA concentrations over a wide range, while keeping the tat protein concentration constant near the Kd. For this Scatchard analysis, the tat protein concentration was held constant at 40 nM and the RNA concentration was varied between 7nM and 320 nM. The total amount of labeled RNA was kept constant in the binding reactions, but the specific activity of the RNA was varied. […]
Tat protein was prepared either from beta-galactosidase-tat fusion proteins (6) or from human growth-hormone-tat fusion proteins (85) using an improved method. In brief, inclusion body pellets containing the fusion protein were solubilized in 7M GdHCl, 50 mM Tris-HCl pH8.0, 2 mM EDTA, 2mM DTT and the fusion protein was purified to near homogeneity by ion-exchange chromatography on Q-Sepharose and S-Sepharose (Pharmacia) in buffers containing […], 50 mM Tris-HCl pH8.0, 2mM EDTA, 2mM DTT. The cysteine residues were protected by disulphide-exchange with 20 mM 2-hydroxyethyldisulphide (86), and the protein was cleaved by cyanogen bromide (6). The basic tat protein was then separated from the acidic human growth hormone peptides by ion-exchange chromatography on Q-Sepharose and S-Sepharose in 6M Urea. The protecting groups were then removed from the protein by addition of 10 mM DTT and the protein refolded by stepwise dialysis against 6 m Urea, 5M Urea,3M Urea, 1M Urea and 0M Urea in a buffer containing 50 mM Tris-HCl pH8.0, 100 uM DTT, 10 uM ZnCl2 Tat protein refolded in this manner elutes as a monomer from Superose 12 columns (Pharmacia) and migrates as a single band on polyacrylamide gels. Protein prepared by both methods behaved comparably in binding assays.
A wide variety of parameters affecting the binding of tat protein to TAR RNA were studied and binding conditions were optimized. Binding of tat to TAR has a distinct pH optimum at pH 8.0, but good binding is observed between pH 7.5 and pH 8.5. Tat/TAR complexes are very sensitive to ionic strength. […] Addition of Zn^+2, Cd^+2, Ca^+2, Mg,^+2, Fe^+2 or Fe^+3 ions to the reaction mixtures […]. However, the binding reaction is sensitive to EDTA at greater than 0.1 mM EDTA. Complex formation is also somewhat temperature sensitive. Optimal binding is observed at 0°C. Between 15° C. and 30° C. there is a 30% reduction in complex formation. […]

The test system of data set [2] is tat-dependent promoter activity of viral LTR carrying the TAR sequence. Kind of data set: trans-activation CAT assay, HeLa cells cotransfected with LTR-CAT test plasmid and tat expression plasmid. The class given is cell-based. To be noted: HeLa cells cotransfected with tat plasmid. From the text: If tat binding to TAR is necessary for trans-activation, then viral LTRs carrying TAR sequences with low affinities for tat should always have reduced tat-dependent promoter activity in vivo. Site-directed mutagenesis experiments on TAR have shown that trans-activation requires sequences in both the U-rich bulge (10, 11) and the loop sequence (12, 27, 28). These observations have now been extended, using TAR mutations with known affinities for tat in transfection experiments, the results of which are shown in FIG. 8. The experiments used either HeLa cells (FIG. 8a-d) or a constitutive producer of tat, HeLa/C63/tat cells (FIG. 8e-f).
The TAR sequences depicted in FIG. 3 [SEQ ID NO: 1-11] were introduced into a test plasmid, pD5-3-3, which carries a LTR and approximately 300 bases of 5' flanking sequences derived from the infectious proviral clone NL4 (29). The bacterial chloramphenicol acetyltransferase (CAT) gene and SV40 intron and terminator sequence from pSV2-CAT (30) was inserted downstream of TAR by cloning into the HindIII site at +77. Trans-activation was measured either by cotransfection of HeLa cells with the test plasmids and the tat expression plasmid pC63-4-1 (6) (panels a-d in […]), or by transfection of the test plasmids alone into HeLa/C63/tat (clone 9) cells (panels e-h). […]

For data set [3], the system named is HIV-1 tat protein. Kind of data set: competition filter binding assay, mutant TAR transcripts against labelled HIV-1 TAR RNA (FIG. 7, Table 1). The following applies: 20 nM TAR RNA, 40 nM tat protein.
Procedure: Binding reactions (500 ul) were set up on ice and contained 80 pM ^32 P-labeled TAR RNA (17,600 dpm, 200 uCi/n mol) and unlabeled TAR RNA to give a final concentration of 20 nM, 0.5 ug calf thymus DNA, 0.2 ug yeast tRNA, 40 units RNAsin (Promega), 50 mM Tris HCl and 20 mM KCl. After addition of competitor RNA, binding was initiated by addition of HIV-1 tat protein to a final concentration of 400 ng/ml (40 nM). The binding reaction mixtures were then filtered under reduced pressure through pre-washed nitrocellulose filters (Millipore 0.45 uM pore size) and filters were dried and counted by liquid scintillation counting.
The fraction of^32 P-labeled TAR RNA bound was plotted against the final concentration of competitor RNA. In these experiments reactions included 20 nM TAR and 40 nM tat protein and increasing amounts of unlabeled competitor RNA from 40 nm to 6 uM. […] In theory, 40 nM tat will bind 50% of the input TAR RNA (D1/2) when the total TAR RNA concentration is 56 nM.
For competition experiments, binding reactions (500 ul) were set up on ice and contained 80 pM ^32 P-labeled TAR RNA (17,600 dpm, 200 uCi/n mol) and unlabeled TAR RNA to give a final concentration of 20 nM, 0.5 ug calf thymus DNA, 0.2 ug yeast TRNA, 40 units RNAsin (Promega), 50 mM Tris-HCl pH 7.9 and 20 mM KCl. After addition of 0 to 6 uM competitor RNA, binding was initiated by addition of HIV- 1 tat protein to a final concentration of 400 ng/mi (40 nM). The binding reaction mixtures were then filtered under reduced pressure through pre-washed nitrocellulose filters (Millipore 0.45 u pore size) and filters were dried and counted by liquid scintillation counting.
KRel is the ratio of the D1/2 values for HIV-1 TAR and competitor RNA.
A further data set concerns Rev. The following applies: references 33, 34; read-out: Kd of Rev-RRE complex; cited from earlier work.
Data set [4] addresses T1, HIV-1 Tat (Human immunodeficiency virus 1, UniProt P04608 P04608:1-86). Briefly: filter; D1/2 420 nM in table (290 nM in text); no complex in EMSA. To be noted: stem-loop without bulge. (In general: Mobility shift assays separate free from complexed probe on a gel.)
The target of data set [5] is T1, HIV-1 Tat. Kind of data set: filter; Scatchard 11.8 nM; 50 mM Tris-HCl, 20 mM KCl, on ice, calf thymus DNA and yeast tRNA present. To be noted: label: 32P; stem-loop with 3-nt U-rich bulge.
The target in data set [6] is T1, HIV-1 Tat. Briefly: filter; UCU bulge indistinguishable from UUU. To be noted: stem-loop with bulge.
For data set [7], the target named is T1, HIV-1 Tat. Briefly: filter; D1/2 680 nM; no complex in EMSA. The following applies: stem-loop, upper stem disrupted.
Data set [8] deals with T1, HIV-1 Tat. Briefly: filter; D1/2 76 nM; compensatory mutation restores binding. The following applies: stem-loop with bulge.
In data set [9] the target is T1, HIV-1 Tat. Kind of data set: filter; D1/2 66 nM; complex in EMSA. To be noted: stem-loop with bulge.
In data set [10] the target is T1, HIV-1 Tat. Briefly: filter; D1/2 160 nM; about 2.5-fold lower affinity; complex in EMSA. The following applies: stem-loop with 2-nt bulge.
Data set [11] has as its target T1, HIV-1 Tat. Briefly: competition; D1/2; unmodified 18+15 duplex 65 nM; 59-mer 18 nM. To be noted: duplex with bulge.
In data set [12] the target is T1, HIV-1 Tat. Briefly: filter; no complex in EMSA. To be noted: stem-loop.
In data set [13] the target is T1, HIV-1 Tat. Briefly: competition; D1/2 vs 10 nM 59-mer probe (59-mer 40 nM); 60 nM vs 29-mer probe. The following applies: hairpin with U-rich bulge and loop.
In data set [14] the target is T1, HIV-1 Tat. Kind of data set: competition; D1/2; 18+15 duplex probe; 59-mer 18 nM. To be noted: duplex with UUU bulge, no apical loop.

Some results are limits rather than exact numbers.

For orientation: Kd means the concentration at which binding is half-saturated. In the case of “G28 to C28 ; C37 to G37: pair of TAR point mutations expected to have a normal TAR stem/loop structure (GGGUCUCUCUGGUUAGACCAGAUUUGACCCUGGGAGGUCUCUGGCUAACUAGGGAACCC; chemistry not given here)”, the Kd in the data set with HIV-1 tat protein [1] was 24 nM. Also, the “trans-activation phenotype” value in data set [2] was “restored to wild-type levels”. Moreover, the “KRel (ratio of D1/2 values for HIV-1 TAR and competitor RNA)” value with HIV-1 tat protein [3] worked out at 0.84. Besides, in the data set with HIV-1 tat protein [3] (read-out: D1/2 (concentration of competitor RNA that reduces binding of HIV-1 tat to HIV-1 TAR RNA to 50%)), the IC50 was 76 nM.

B1: RRE: rev-responsive element, 243-nucleotide long sequence within the env gene (nucleic acid)
chain: CAGUGGGAAUAGGAGCUUUGUUCCUUGGGUUCUUGGGAGCAGCAGGAAGCACUAUGGGCGCAGCGUCAAUGACGCUGACGGUACAGGCCAGACAAUUAUUGUCUGGUAUAGUGCAGCAGCAGAACAAUUUGCUGAGGGCUAUUGAGGCGCAACAGCAUCUGUUGCAACUCAAGUCUGGGGCAUCAAGCAGCUCCAGGCAAGAAUCCUGGCUGUGGAAAGAUACCUAAAGGAUCAACAGCUCCU
As for B1, in the data set with Rev, the equilibrium dissociation constant (Kd) was 3 nM.

B2: TAR delta U (bulge) (ssRNA)
RNA: GGGUCUCUCUGGUUAGACCAGAGAGCCUGGGAGCUCUCUGGCUAACUAGGGAACCC
With B2, the Kd in the data set with HIV-1 Tat [4] is above 70 nM.

B3: HIV-1 TAR RNA 59-mer (UUU bulge) (ssRNA)
RNA: GGGUCUCUCUGGUUAGACCAGAUUUGAGCCUGGGAGCUCUCUGGCUAACUAGGGAACCC
In turn, B3 returned a dissociation constant (Kd) in the data set with HIV-1 Tat [5] of 12 nM.

B4: HIV-1 TAR RNA (UCU bulge) (ssRNA)
RNA: GGGUCUCUCUGGUUAGACCAGAUCUGAGCCUGGGAGCUCUCUGGCUAACUAGGGAACCC
modifications: [24]
Turning to B4, the Kd with HIV-1 Tat [6] is 12 nM.

B5: TAR G28 to C28 (ssRNA)
RNA: GGGUCUCUCUGGUUAGACCAGAUUUGACCCUGGGAGCUCUCUGGCUAACUAGGGAACCC
B5: the dissociation constant Kd in the data set with HIV-1 Tat [7] was above 100 nM.

B6: TAR G28 to C28; C37 to G37 (ssRNA)
RNA: GGGUCUCUCUGGUUAGACCAGAUUUGACCCUGGGAGGUCUCUGGCUAACUAGGGAACCC
On to B6, for which binding in the data set with HIV-1 Tat [8] was put at a Kd of 24 nM.

B7: TAR G to U (loop) (ssRNA)
RNA: GGGUCUCUCUGGUUAGACCAGAUUUGAGCCUUUUAGCUCUCUGGCUAACUAGGGAACCC
On to B7, for which binding in the data set with HIV-1 Tat [9] was put at a Kd of 25 nM.

B8: HIV-2 TAR RNA first stem-loop (ssRNA)
RNA: CUGCGGAGAGGCUGGCAGAUUGAGCCCUGGGAGGUUCUCUCCAGCACUAGCAG
Molecule B8 gave a Kd with HIV-1 Tat [10] of 30 nM.

B9: 18+15 duplex 4-thioT-25 (dsRNA)
RNA 1: AGCCAGAUUTGAGCAGCU
RNA 2: AGCUGCUCUCUGGCU
modifications: 4-thio-2'-deoxythymidine at U25 (nt 10) [10 (strand 1, 4-thio-2'-deoxythymidine)]
In turn, B9 gave an IC50 in the data set with HIV-1 Tat [11] of 12 nM.

B10: Antisense TAR (ssRNA)
RNA: GGGUUCCCUAGUUAGCCAGAGAGCUCCCAGGCUCAAAUCUGGUCUAACCAGAGAGACCC
Consider B10, for which the dissociation constant Kd with HIV-1 Tat [12] was above 140 nM.

B11: 29-mer top part of TAR (ssRNA)
RNA: GCCAGAUUUGAGCCUGGGAGCUCUCUGGC
B11 returned an IC50 with HIV-1 Tat [13] of 100 nM.

B12: 18-mer + 15-mer TAR duplex (dsRNA)
RNA 1: AGCCAGAUUUGAGCAGCU
RNA 2: AGCUGCUCUCUGGCU
As to B12, the IC50 with HIV-1 Tat [14] was found to be 65 nM.
